Measured values: the nanobody polyreactivity screen of Harvey et al. (2022)

Assay: yeast display, Sf9 membrane polyspecificity reagent, FACS + sequencing; frameworks hold sequencing errors
Procedure, shortened: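 Nanobodies from a synthetic yeast display library (Saccharomyces cerevisiae BJ5465), induced 36–48 hours with galactose, were stained 1 hour at 4 °C with 10% biotinylated, detergent-solubilized Sf9 membrane reagent, enriched on streptavidin microbeads, then FACS-sorted. Anti-HA (expression) and streptavidin (reagent binding) fluorescence set low and high (top ~1%) gates. Polyreactivity labels come from the gate of origin. Genes were colony-PCR amplified, MiSeq 2 × 250 sequenced and filtered by CDR length.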

Sequence | polyreactivity (PSR sort gate)
QVQLVDSGGGLVQAGGSLRLSCAASGIIYRFYAMGWYRQAPAQEREMVAAISSGGSTYYADSVKGRCTISRDTAKNTVYLQINRLKPEDTAVYYCNARVRYKRTGRYGYWGQGTQVTVSS | high polyreactivity
QVQLVESGGGLVQAGGSLRLSCAASGSTFHRYAMGWSRQAPGKERELVATINLNTGSTYADSVKGRFTISRDNAKNTVYVQMNSLKPEDTAVYYCAAYGRWPFTWYNYWGQGTQVTVSS | low polyreactivity
QVQLVESGGGLVQAGGSLRLSCAASGLIFYDNMGWYGPAPGKERELVAAISSSGGSTSYADSVKGRFTISRDNAKNTVYLQMNSLKPEDTAVYYCAADSYPAYLGFVCFDYWGQGTQVTVSS | low polyreactivity
QVQLVESGGGLVQAGGSLRLSCAATGYIFSHYAMGWYRQAPGKERELVAAITRSGGSTYYADSVKGRFTISRDNAKNTVYLQMNSLKPEVTAVYYCAASSLFYYWGQGTQVTVSS | high polyreactivity
QVQLEESGGGLVQAGGSLRLSCAASGFTFNPYTMGWYRQAPGKERELVAAITSSGGSTYYADSVKGRFTISRDNAKNTVYLQMNSLKPEDTAVYYCAKLRTASIYDYWGQGTQVTVSS | low polyreactivity
QVQLVESGGGLVQAGGSLRLSSAASGFIFAIYSMGWYRQAPGKERELVAAISRSGGRTYYADSVKGRFTISRDIAKNTVYLQMISLKPEDTAVYYCNARFQYRGVKYYYWGKGTQVTVSS | high polyreactivity
QVQLVESGGGLVQAGGSLRLSCAASGIIFSYYDMGRYRQAPGKERELVATITGNGGSTYYADSVKGRFTISRDNAKNTVYLQMNSLKPEDTAVYYCAAQTTVYIYDYWGQGTQVTVSS | low polyreactivity
QVQLVESGGGLVQAGGSLRLSCAASGRTFRNYAMGWYRPAPGKERELVAAITWSGGSTYYADSVKGRFTISRDNAKNTVYLQMNSLKPEDTAVYYCNVRSYTRTYNYWGQGTQVTVSS | high polyreactivity
QVQLVESGGGLVQAGGSLRLSCAASGFIFVTNAMGWYRQAPGKERELVAAINWSGGRTYYADSVKGRFTISRDNAKNTVYLQMNSLKPEDTAVYYCAADPYARLGEYGYWGQGTQVTVSS | low polyreactivity
QVQLVESGGGLVQAGGSLRLSCAASGRTFVYNVMGWYRQAPGKERELVAAISSGGSTNYADSVKGRFTISRDNGKNTVYVQMNSLKPEDTAVYYCNAGTLYYRYRWGHYYDSWGQGTQVTVSS | low polyreactivity
QVQLVESGGGLVQAGGSLRLSCAASGSTFLGNAMGWYRQAPGKERELVAGITSGGTTNYADSVKGRFTISRDNAKNTVYLQMNSLKPEDTAVYYCNADVWIGQRFDPGYDFDYWGQGTQVTVSS | low polyreactivity
QGQVVESGGGLVQAGGSLRLSCAASGSTFYGYAMGWYREAAGKERELVAAISRDGSTNYADSVKGRFTISRDNAKNTVYLQMNSLKPEDTAVYYCATRTKKRAPYKFYSWGQGTQVTVSS | high polyreactivity
QVQLVESGGGLVQAGGSLRLSFAASGSIFVGYAMGLYRQAPGKERELVAAISWSGDSTYYADSVKGRFTISRDNAKNTVYLQMYSLKPEDTAVPYCAVDPQQVRTLDYYVGYDYWGQGTQVTVSS | low polyreactivity
QVQLVESGGGLVQAGGSLRLSCAASGFTFYKNTMGWYRQAPGKVRELGAAISSSGSSTYYADSVKGRFTISRDNAKTTVYLQMNSLKPEDTAVYYCAAVSHYPAGYDYWGQGTQVTVSS | high polyreactivity
QVQLVESGGGLVQAGGSLRLSWAASGRTIVYYAMGWYSQAPGKEREFVAAISRSGGRTSYADSVKGRFTISRDNAKNTVYLHMNILKPDDTAVYYCAAEKRTQPTSREYYWGKGTQVTVSS | high polyreactivity
QVQLVESGGGLVHAGGSLRLSCAASGLIFPRYAMGSYRQAPGKERELVAAISRSGGNTYYADSVKGRFTISRDNAKNTVYLQMNSLKPEDTAVYYCAAYFSTAPKSQYKLDYWGQGTQVTVSS | high polyreactivity

Sequence | polyreactivity (PSR sort gate)
QVQLVESGGGLLQAGGSLRLSCAASGRTIVQNAMGWYRQAPGKERELVASIRYRDGSTYYADSVKGRFTISRDNAKNTVYLQMNSLKTEDTAVYYCAVRYYRKYYYSPFDYWGQGTQVTVSS | high polyreactivity
QVQLVESGGGLVQAGGSLRLSCAASGRIFTTYAMGWYRQAPGKERELVASITTTDTRTYADSVKGRFTISRDNAKNTVYLQMNSLKPEDTAVYNCAKDRLNKGRYYRAASDYWGQGTQVTVSS | low polyreactivity
QVQLVESGGGLVQAGGSLRLTCAASGIIFYIYAMGWYRQAPGKERELVAGISWRGGSTSYADSVKGRFTISRDNAKNTVYLQMNSLKPEDTAVYYCAAEVYSWDGYDYWGQGTQVTVSS | low polyreactivity
QVQLVESGGGLVQAGGSLRLSCAPSGSTFVRYAMGWYRQAPGKESELVAAISKSGVSTYYADSVKGRFTISRDNAKNTVNLQMNSLKPEDTAVYYCAAYARGVRRYRRYDYWGPGTQVTVSS | high polyreactivity
QVQLVESGGGLVQAGGSLRLSCAASGRIFRYNAMGWYRQAPGKERELVAAISWSGGSTYADSVKGRFTISRDNAKNTVYLQMNSLKPEDTAVYFCAADSSDLYVWGYDHGGQGTQVTVSS | low polyreactivity
QVQLVESGGGLVQAGGSLRLSCAASGSIFGWYAMGWYRQAPGKVRELVATITDRGGRTYYADSVKGRFTISRDNAKNTVYLQMNSLTPEDTAVYDCAADAWPFEAESDSWGQGTQVTVSS | low polyreactivity
QVQLVESGGGLVQAGGSLRISCAASGSIFYRYAMGWYRQAPGKERELVAAIRTRGGTYYADSVKGRFTISRDNAKNTVYLQMNSLKPEDTAVYYCNAVVPGWTAVDYDYWGQGTQVTVSS | high polyreactivity
QVQHVESGGGLVQAGGSLRLSCAASGFTFWYYDMGWSRQAPGKERELVAAITNGGRTYYADSVKGRFTISRDNAKNTVYLQMNSLKPEDTAVYYCAAGRWRSGRAEDYWGQGTQVTVSS | high polyreactivity
QVQLVESGGGLVQAGGSLRLSCAASGSTFRHNAMGWYRQAPGKERELVATIRTSGGTTYYADSVKGRFTISRDNAKNTVYLQMNSLKQEDTAVYYCAAVSYLFLYQGYPIAYPMYYWGQGSQVTVSS | low polyreactivity
KVQLVESGGGLVQAGGSLRLSCAASGSTFYYYAMGWYSQAPGKERELVAAITSSTGSTYYADSVKGRFTISRDNAKNTVYLQMNSLKPVDTAVYYCAATDPYAYYWGQGTKVTVSS | high polyreactivity
QVQLVESGGGLVQAGGSLRIICAASGYIFVRNAMGWYRQAPGKERELVAAISCSGGSTYYADSVKGRFTISRDNAKNTVFLQMNSLKPEDTAVYSCAADYATVTWRGIAYDYWGQGTQVTVSS | low polyreactivity
QVQLVESGGGLVQAGGSLRLSCAASGSIFNRYTMGWYRQAPGKERELVAAISKRGGSTYYADSVKGRFTISRDNAKNTVYLQMNSLKPEDSAVYYCAAAAYHSGNGGGYWGQGTQVSVSS | high polyreactivity
QVQLVESGGGLVQAGGSLRLSCAASGRIFYFYAMGWYRQAPGKERELVAAISTSGGSTYYADSVKGRFTISRDNAKNTVYLQMNSLKPEDTAVYYCAARFRYYGSEYDYWGQGTQVTVAS | low polyreactivity
QVQLVESGGALVQAGGSLRLSCAASGNIFVYYAMGGYRQAPGKERELVAAITSDVSTYYADSVKGRFTISRDNAKNTVYLQMNSLKPEDTAVYYCATTGYGSYVIYWGQGTQVTVSS | low polyreactivity
QVQLEESGGGLVQAGGSLRLSCAASGFSFVTYPMGWYRQAPGKEREFVATISRSGGSTYYADSVKGRFTISRDNAKNTVYLQMNSLKPEDTAVYYCAARGRYPYRYGYWGQGTQVTVSS | high polyreactivity
QVQLVESGGGLVQAGGSLRLSCAASGIFGWNTMGWYRQAPGTERELVATISWGGGTTYYADSVKGRFTISRDNAKNTVYLQMNSLKPEDTAVYYCAKVYAVRIGLRYYYWGQGTQVTVSS | low polyreactivity
